This note sets out measurements from patent publication US20190100588A1 (VISTERRA, published 2019).

Residue numbers refer to the chain shown, from its start.

The target of assay [1] is T1, Peptide 2a (human).
T1 construct: also called Pep2a
T1 peptide: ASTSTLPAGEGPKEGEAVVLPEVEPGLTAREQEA
Nature of the assay: peptide binding ELISA. How it is done: (§1) As above, the monoclonal antibodies were tested for binding to a series of CD138 peptides in four-fold serial dilutions starting at 1 μg/mL. […] HRP-conjugated anti-human IgG-Fc antibody (1:5000 dilution) was used for detection. Antibody B-B4 was also tested as a reference. […] Reference antibody B-B4 only bound to Peptide 2a.

Assay [2] has as its target T2, Peptide 6B (human, biotin at the amino terminus).
T2 construct: also called Pep6b
T2 peptide: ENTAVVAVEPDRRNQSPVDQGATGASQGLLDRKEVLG
The experiment in a line: bio-layer interferometry, biotinylated peptide.

Assay [3] concerns the target T3, mutated CD138 Clone 1 (human, UniProt P18827 23-310).
T3 construct: Leu107, Pro108, Glu109 of the original site mutated to Ala; Expressed on Expi293 cells
T3 chain: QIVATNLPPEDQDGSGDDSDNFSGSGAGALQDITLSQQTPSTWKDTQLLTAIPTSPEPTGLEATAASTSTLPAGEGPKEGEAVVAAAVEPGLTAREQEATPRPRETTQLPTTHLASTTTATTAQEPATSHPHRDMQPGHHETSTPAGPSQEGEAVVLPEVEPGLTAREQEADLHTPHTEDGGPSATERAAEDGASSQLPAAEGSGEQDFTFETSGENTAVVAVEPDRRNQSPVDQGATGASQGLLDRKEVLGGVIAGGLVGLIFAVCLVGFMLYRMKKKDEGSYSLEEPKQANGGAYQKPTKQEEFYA
Nature of the assay: staining of Expi293 cells expressing the CD138 variant.

In assay [4] the target is T4, mutated CD138 Clone 2 (human, UniProt P18827 23-310).
T4 construct: Leu107, Pro108, Glu109 mutated to Ala; Expressed on Expi293 cells
T4 chain: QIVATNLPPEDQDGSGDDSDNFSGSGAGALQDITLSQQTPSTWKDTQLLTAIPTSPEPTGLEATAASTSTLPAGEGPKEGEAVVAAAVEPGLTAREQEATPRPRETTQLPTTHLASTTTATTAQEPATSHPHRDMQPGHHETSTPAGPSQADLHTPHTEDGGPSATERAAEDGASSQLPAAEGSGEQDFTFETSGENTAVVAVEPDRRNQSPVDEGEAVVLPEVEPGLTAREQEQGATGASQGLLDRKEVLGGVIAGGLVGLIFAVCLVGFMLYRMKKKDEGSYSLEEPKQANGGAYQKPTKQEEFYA
Described as above.

In assay [5] the target is T5, mutated CD138 Clone 4 (human, UniProt P18827 23-310).
T5 construct: Leu107, Pro108, Glu109 mutated to Ala; Expressed on Expi293 cells
T5 chain: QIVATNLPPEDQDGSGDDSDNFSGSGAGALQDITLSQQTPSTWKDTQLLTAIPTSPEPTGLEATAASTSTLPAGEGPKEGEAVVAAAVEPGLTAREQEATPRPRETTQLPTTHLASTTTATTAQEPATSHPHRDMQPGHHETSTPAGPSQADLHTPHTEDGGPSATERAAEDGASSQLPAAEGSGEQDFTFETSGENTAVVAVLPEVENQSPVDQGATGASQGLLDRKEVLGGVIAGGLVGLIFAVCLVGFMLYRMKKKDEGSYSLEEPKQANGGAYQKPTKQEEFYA
Described as above.

For assay [6], the target named is T6, mutated CD138 Clone 5 (human, UniProt P18827 23-310).
T6 construct: Leu107, Pro108, Glu109 mutated to Ala; Expressed on Expi293 cells
T6 chain: T5 chain with L204E, E206D, V207R, E208R, S211L, V213E, D214V, Q215E
The description is as above.

In assay [7] the target is T7, recombinant CD138 extracellular domain (soluble CD138) (human, UniProt P18827 23-250).
T7 construct: also called soluble CD138 extracellular domain; biotinylated CD138
T7 sequence: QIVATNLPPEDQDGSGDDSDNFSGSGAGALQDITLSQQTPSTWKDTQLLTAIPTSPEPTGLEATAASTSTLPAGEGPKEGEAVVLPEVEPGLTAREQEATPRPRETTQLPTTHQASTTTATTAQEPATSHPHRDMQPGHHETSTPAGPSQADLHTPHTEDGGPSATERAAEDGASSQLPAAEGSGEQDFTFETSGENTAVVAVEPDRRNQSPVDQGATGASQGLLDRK
Nature of the assay: ELISA, soluble CD138. How it is done:
(§2) Antibody B-B4 was included as a reference. Briefly, the monoclonal antibodies were tested for binding to recombinant CD138 extracellular domain consisting of amino acids 23-254 of human CD138, in four-fold serial dilutions starting at 1 μg/mL. HRP-conjugated anti-human IgG-Fc antibody (1:5000 dilution) was used for detection.

The target of assay [8] is T8, Pep6 (human).
T8 construct: also called Peptide 6; Peptide-6
T8 peptide: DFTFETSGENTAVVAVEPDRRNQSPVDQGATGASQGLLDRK
Nature of the assay: peptide binding ELISA. On the procedure: as §1
In general terms: ELISA stands for enzyme-linked immunosorbent assay.

Assay [9] concerns the target T9, cell surface CD138 (human CD138) (human, UniProt P18827 23-310).
T9 construct: whole, on cells; also called membrane CD138
T9 sequence (looked up): T5 chain with A85L, A86P, A87E, L204E, E206D, V207R, E208R
Nature of the assay: flow cytometry, U266 cells. How it is done:
(§3) Binding of anti-CD138 antibodies to CD138 was tested by flow cytometry binding assay. Multiple myeloma cell lines RPMI 8226 (ATCC) and U266 (ATCC) were grown in RPMI1640 with 10% FBS. On the day of experiment, 0.25×10⁶ cells were washed with FACS buffer (PBS+0.5% BSA) and incubated with dilution series of anti-CD138 antibodies (starting 10 ug/ml) or hybridoma supernatants (starting with undiluted supernatant) for 30 min at 4° C. followed by incubation with goat-anti-human/mouse conjugated APC antibodies (BioLegend) for 30 min at 4° C. Fluorescence was detected using flow cytometer.
(§4) The afucosylated antibody variants were then tested for capacity to induce ADCC, as described above.
(Flow cytometry measures light scatter and fluorescence of single cells or particles in a stream.)

Assay [10] deals with T10, Peptide 2C (human, biotin at the amino terminus).
T10 construct: also called Pep2c
T10 peptide: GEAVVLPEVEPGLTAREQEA
The experiment in a line: bio-layer interferometry, biotinylated peptide. For orientation: In BLI a coated tip is dipped into the sample, and binding shifts an interference pattern.

In assay [11] the target is T11, Peptide 6E (human, biotin at the amino terminus).
T11 construct: also called Pep6e
T11 peptide: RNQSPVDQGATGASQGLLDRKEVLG
The experiment in a line: bio-layer interferometry, biotinylated peptide.

Assay [12] has as its target T7, recombinant CD138 extracellular domain …. The experiment in a line: ELISA (FIG. 18A).
The target of assay [13] is T1, Peptide 2a. The experiment in a line: ELISA (FIG. 18B).
Assay [14] addresses T8, Pep6. Nature of the assay: ELISA (FIG. 18C).
For assay [15], the target named is T9, cell surface CD138 (human CD138). The experiment in a line: form of CD138 not named.
Assay [16] shares this target. The experiment in a line: flow cytometry, U266 cells, afucosylated antibody. On the procedure:
as §3, §4

Assay [17] has as its target T2, Peptide 6B. Nature of the assay: ELISA with captured antibody (FIG. 21); also bio-layer interferometry (FIG. 22A). How it is done:
Briefly, biotinylated peptides (Peptides 2A, 2D, 6B, and 6F; sequences shown in FIG. 22C) were used at 50 nM and captured on streptavidin capture biosensors. Antibodies were then run over the captured peptides at concentrations of 25 nM to 6.25 nM.

The target in assay [18] is T12, Pep5 (human).
T12 construct: also called Peptide 5
T12 peptide: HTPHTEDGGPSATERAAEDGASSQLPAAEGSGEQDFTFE
Nature of the assay: peptide binding ELISA. How it is done: as §1

Assay [19] deals with T7, recombinant CD138 extracellular domain …. Nature of the assay: ELISA, recombinant CD138 extracellular domain. How it is done: as §2

B1: antibody B-B4 (antibody, V domains shown)
VH: QVQLQQSGSELMMPGASVKISCKATGYTFSNYWIEWVKQRPGHGLEWIGEILPGTGRTIYNEKFKGKATFTADISSNTVQMQLSSLTSEDSAVYYCARRDYYGNFYYAMDYWGQGTSVTVSS
VL: DIQMTQSTSSLSASLGDRVTISCSASQGINNYLNWYQQKPDGTVELLIYYTSTLQSGVPSRFSGSGSGTDYSLTISNLEPEDIGTYYCQQYSKLPRTFGGGTKLEIK
notes: detected with anti-human IgG-Fc; afucosylated and biotinylated versions also used; also called B-B4-IgG1; MAb B-B4
Take B1: the binding result in [1] is on record as “binds”; in [2], “no binding”; in [3], “binds”; in assay [4] it was “binds”; in assay [5] it was “binds”; in [6], “binds”.

B2: antibody 1610 (antibody, V domains shown)
VH: QVQLHQPGTSLVKPGASVKLSCKASGYNFSSYYMHWVKQRPGQGLEWIGTIHPSDSTTNCNQKFKGKATLTVDKSSRTAYMQLNSLTFEDSAVYYCANFVYWGQGTSVTVSS
VL: DIVITQDELSNPVTSGDSVSISCRSSKSLLYKDGKTYLNWFLQRPGQSPQLLIYVVSTRASGVSDRFSGSGSGTDFTLEISRVKAEDVGVYYCQQLVEYPYTFGGGTKLEIK
notes: Chimeric monoclonal antibody, murine variable regions and human IgG1
Usually EC50 stands for the concentration giving half of the maximal effect. As for B2, the EC50 was found to be 0.394 µg/mL in assay [7] and 0.0019 µg/mL in [9]. The binding result is listed as “binds” in assay [8]; “binds” in assay [1]; “binds” in assay [10]; “binds” in [2]; “no binding” in assay [11].

B3: antibody 2610 (antibody, V domains shown)
VH: B2 VH with N28S
VL: B2 VL
As for B3, the binding result in assay [12], in assay [13], in [14] and in [15] was “binds” in each case.

B4: antibody 2810 (antibody, V domains shown)
VH: B2 VH with N28S, C60Y
VL: B2 VL
Take B4: the binding result in assay [12], in [13], in [14], in [16] and in assay [17] was “binds” throughout.

B5: antibody CD002 (antibody, V domains shown)
VH: QVQLQQPGAELVKPGASVKLSCKASGFSFITYWMNWIKQRPGRGLEWIGRIHPSDSATQYNQKFKTKATLTVDKSSSTAYIQLSSLTSEDSAVYYCARSTEGAHWGQGTLVTVSA
VL: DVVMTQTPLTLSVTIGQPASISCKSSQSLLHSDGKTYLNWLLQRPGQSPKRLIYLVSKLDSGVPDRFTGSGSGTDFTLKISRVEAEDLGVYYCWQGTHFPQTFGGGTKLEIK
For the molecule B5, the binding result in assay [18] and in assay [19] was “binds” throughout.
